The values that follow come from PMC5751438 (Cell, 2017).

B1: Cdc48 ATPase (wild type, untagged) (enzyme, S. cerevisiae, UniProt P25694 1-835, looked up)
chain: MGEEHKPLLDASGVDPREEDKTATAILRRKKKDNMLLVDDAINDDNSVIAINSNTMDKLELFRGDTVLVKGKKRKDTVLIVLIDDELEDGACRINRVVRNNLRIRLGDLVTIHPCPDIKYATRISVLPIADTIEGITGNLFDVFLKPYFVEAYRPVRKGDHFVVRGGMRQVEFKVVDVEPEEYAVVAQDTIIHWEGEPINREDEENNMNEVGYDDIGGCRKQMAQIREMVELPLRHPQLFKAIGIKPPRGVLMYGPPGTGKTLMARAVANETGAFFFLINGPEVMSKMAGESESNLRKAFEEAEKNAPAIIFIDEIDSIAPKRDKTNGEVERRVVSQLLTLMDGMKARSNVVVIAATNRPNSIDPALRRFGRFDREVDIGIPDATGRLEVLRIHTKNMKLADDVDLEALAAETHGYVGADIASLCSEAAMQQIREKMDLIDLDEDEIDAEVLDSLGVTMDNFRFALGNSNPSALRETVVESVNVTWDDVGGLDEIKEELKETVEYPVLHPDQYTKFGLSPSKGVLFYGPPGTGKTLLAKAVATEVSANFISVKGPELLSMWYGESESNIRDIFDKARAAAPTVVFLDELDSIAKARGGSLGDAGGASDRVVNQLLTEMDGMNAKKNVFVIGATNRPDQIDPAILRPGRLDQLIYVPLPDENARLSILNAQLRKTPLEPGLELTAIAKATQGFSGADLLYIVQRAAKYAIKDSIEAHRQHEAEKEVKVEGEDVEMTDEGAKAEQEPEVDPVPYITKEHFAEAMKTAKRSVSDAELRRYEAYSQQMKASRGQFSNFNFNDAPLGTTATDNANSNNSAPSGAGAAFGSNAEEDDDLYS

The target in experiment [1] is T1, SBP-tagged Ufd1/Npl4 heterodimer (SBP tag on Ufd1) (S. cerevisiae, UniProt P53044 1-361; P33755 1-580).
T1 sequence (looked up) 1: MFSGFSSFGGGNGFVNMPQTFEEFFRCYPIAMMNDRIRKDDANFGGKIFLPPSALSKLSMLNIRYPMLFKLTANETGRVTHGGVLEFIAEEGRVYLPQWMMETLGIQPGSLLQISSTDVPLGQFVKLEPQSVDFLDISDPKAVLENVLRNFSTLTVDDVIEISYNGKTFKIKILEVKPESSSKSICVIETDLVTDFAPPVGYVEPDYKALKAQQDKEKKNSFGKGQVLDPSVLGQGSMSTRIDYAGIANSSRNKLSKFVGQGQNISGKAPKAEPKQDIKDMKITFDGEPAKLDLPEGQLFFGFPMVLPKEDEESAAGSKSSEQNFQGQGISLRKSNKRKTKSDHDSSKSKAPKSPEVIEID
T1 sequence (looked up) 2: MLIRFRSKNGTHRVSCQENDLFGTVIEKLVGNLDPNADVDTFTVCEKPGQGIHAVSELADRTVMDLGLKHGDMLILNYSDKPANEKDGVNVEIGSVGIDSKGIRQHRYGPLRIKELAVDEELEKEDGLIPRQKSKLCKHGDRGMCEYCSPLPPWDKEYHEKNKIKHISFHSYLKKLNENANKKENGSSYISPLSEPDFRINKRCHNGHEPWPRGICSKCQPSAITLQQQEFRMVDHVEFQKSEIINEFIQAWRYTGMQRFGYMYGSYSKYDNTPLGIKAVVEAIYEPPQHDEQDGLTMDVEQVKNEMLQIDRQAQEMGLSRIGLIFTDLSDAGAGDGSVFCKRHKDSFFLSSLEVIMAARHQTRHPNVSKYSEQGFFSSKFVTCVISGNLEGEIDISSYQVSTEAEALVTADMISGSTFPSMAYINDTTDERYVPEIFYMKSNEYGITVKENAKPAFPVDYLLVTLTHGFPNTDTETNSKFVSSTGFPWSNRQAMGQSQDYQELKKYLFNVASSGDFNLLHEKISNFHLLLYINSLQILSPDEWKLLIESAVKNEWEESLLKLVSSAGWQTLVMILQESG
Nature of the experiment: pull-down.

Experiment [2] has as its target B1. The experiment can be described thus: pull-down.

In the case of B1, the binding result in experiment [1] is “binds”.

B2: Otu1 (wild type) (enzyme, UniProt P43558 1-301, looked up)
chain: MKLKVTGAGINQVVTLKQDATLNDLIEHINVDVKTMRFGYPPQRINLQGEDASLGQTQLDELGINSGEKITIESSDSNESFSLPPPQPKPKRVLKSTEMSIGGSGENVLSVHPVLDDNSCLFHAIAYGIFKQDSVRDLREMVSKEVLNNPVKFNDAILDKPNKDYAQWILKMESWGGAIEIGIISDALAVAIYVVDIDAVKIEKFNEDKFDNYILILFNGIHYDSLTMNEFKTVFNKNQPESDDVLTAALQLASNLKQTGYSFNTHKAQIKCNTCQMTFVGEREVARHAESTGHVDFGQNR
With B2, the binding result in experiment [2] is given as “binds”.
